Test results taken from US20170355769A1 (AbbVie / Abbott, published 2017).

T1: Human full length B7-H3 (human, UniProt Q5ZPR3 29-534)
T1 sequence: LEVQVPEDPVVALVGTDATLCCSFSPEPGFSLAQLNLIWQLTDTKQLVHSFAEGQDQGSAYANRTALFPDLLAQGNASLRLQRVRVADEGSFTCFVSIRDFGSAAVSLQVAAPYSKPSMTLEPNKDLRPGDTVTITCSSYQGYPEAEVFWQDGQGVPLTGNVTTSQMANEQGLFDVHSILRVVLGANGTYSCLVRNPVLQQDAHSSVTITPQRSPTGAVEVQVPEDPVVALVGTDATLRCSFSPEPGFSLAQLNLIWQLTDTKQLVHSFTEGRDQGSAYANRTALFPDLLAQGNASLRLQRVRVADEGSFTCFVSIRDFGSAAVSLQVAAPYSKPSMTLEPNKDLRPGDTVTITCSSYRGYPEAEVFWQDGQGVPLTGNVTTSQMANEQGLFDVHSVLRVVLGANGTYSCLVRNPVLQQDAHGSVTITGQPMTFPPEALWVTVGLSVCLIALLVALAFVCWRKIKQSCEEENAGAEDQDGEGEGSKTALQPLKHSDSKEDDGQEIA

B1: huAb3v2.5-TX (antibody, human IgG1, kappa, L234A L235A, V domains shown)
VH: EVQLVQSGAEVKKPGSSVKVSCKASGYTFSSYWMHWVRQAPGQGLEWIGLIHPESGSTNYNEMFKNRATLTVDRSTSTAYMELSSLRSEDTAVYYCAGGGRLYFDYWGQGTTVTVSS
VL: DIVMTQSPLSLPVTPGEPASISCRSSQSLVHSNRDTYLRWYLQKPGQSPQLLIYKVSNRFSGVPDRFSGSGSGTDFTLKISRVEAEDVGVYYCSQSTHVPYTFGGGTKVEIKR
modifications: synthon TX on reduced interchain Cys
B2: huAb3v2.5-TV (antibody, human IgG1, kappa, L234A L235A, V domains shown)
VH: B1 VH
VL: B1 VL
modifications: synthon TV on reduced interchain Cys
B3: huAb3v2.5-WD (antibody, human IgG1, kappa, L234A L235A, V domains shown)
VH: B1 VH
VL: B1 VL
modifications: synthon WD on reduced interchain Cys
B4: huAb3v2.5-YY (antibody, human IgG1, kappa, L234A L235A, V domains shown)
VH: B1 VH
VL: B1 VL
modifications: synthon YY on reduced interchain Cys
B5: huAb3v2.5-AAA (antibody, human IgG1, kappa, L234A L235A, V domains shown)
VH: B1 VH
VL: B1 VL
modifications: synthon AAA on reduced interchain Cys
B6: huAb3v2.5-LB (antibody, human IgG1, kappa, L234A L235A, V domains shown)
VH: B1 VH
VL: B1 VL
modifications: synthon LB on reduced interchain Cys
B7: huAb3v2.5-AAD (antibody, human IgG1, kappa, L234A L235A, V domains shown)
VH: B1 VH
VL: B1 VL
modifications: synthon AAD on reduced interchain Cys
B8: huAb13v1-XW (antibody, human IgG1, kappa, L234A L235A, V domains shown)
VH: EVQLQESGPGLVKPSETLSLTCAVTGYSITSGYSWHWIRQFPGNGLEWMGYIHSSGSTNYNPSLKSRISISRDTSKNQFFLKLSSVTAADTAVYYCAGYDDYFEYWGQGTTVTVSS
VL: DIQMTQSPSSLSASVGDRVTITCKASQNVGFNVAWYQQKPGKSPKALIYSASYRYSGVPSRFSGSGSGTDFTLTISSLQPEDFAEYFCQQYNWYPFTFGQGTKLEIKR
modifications: synthon XW on reduced interchain Cys
B9: huAb13v1-YG (antibody, human IgG1, kappa, L234A L235A, V domains shown)
VH: B8 VH
VL: B8 VL
modifications: synthon YG on reduced interchain Cys
B10: huAb13v1-SR (antibody, human IgG1, kappa, L234A L235A, V domains shown)
VH: B8 VH
VL: B8 VL
modifications: synthon SR on reduced interchain Cys
B11: huAb13v1-SE (antibody, human IgG1, kappa, L234A L235A, V domains shown)
VH: B8 VH
VL: B8 VL
modifications: synthon SE on reduced interchain Cys
B12: huAb13v1-TX (antibody, human IgG1, kappa, L234A L235A, V domains shown)
VH: B8 VH
VL: B8 VL
modifications: synthon TX on reduced interchain Cys
B13: huAb13v1-KZ (antibody, human IgG1, kappa, L234A L235A, V domains shown)
VH: B8 VH
VL: B8 VL
modifications: synthon KZ on reduced interchain Cys

Target: T1, Human full length B7-H3
Test: cell-based or functional assay

Binder | EC50 nM H1650 (tumor cell cytotoxicity)
B1 | 0.62 nM
B2 | 0.53 nM
B3 | 0.83 nM
B4 | 0.71 nM
B5 | 0.85 nM
B6 | 2.59 nM
B7 | 0.49 nM
B8 | 0.86 nM
B9 | 0.33 nM
B10 | 0.59 nM
B11 | 0.63 nM
B12 | 0.22 nM
B13 | 179 nM
